Reference: the supplement of paper PMC10567573
± gives the standard deviation.

Experiment: protein stability index of a GFP-peptide fusion (GPS, HEK-293T) (PSI 1-6); higher = more stable
Conditions: c terminus: a fixed tail appended
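Further: 24-mer peptide tiles fused after GFP, lentivirally expressed, FACS-sorted into six equal bins by GFP/DsRed ratio, decoded by Illumina sequencing, PSI is the read-weighted mean bin number.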

Sequence	protein stability index (treatment: DMSO)	protein stability index (treatment: MLN4924 1 uM, 8 h)
ICAIEYLHSKEIVYRDLKPENILL [PRKX]	2.61 ± 0.39	2.96 ± 0.94
DLVRLLQNVARIPEFELLWKDIIH [INTS3]	2.61 ± 0.65	2.15 ± 0.19
LARRRRRRQARREAEADKPRRLGR [NOP53]	4.63 ± 0.093	4.75 ± 0.42
YQLPQMPDVVVRSFMTWLRSYIKL [MED27]	2.01 ± 0.13	2.25 ± 0.21
AYRCGSGMQMAEDSKSLKTHQTQP [NET1]	3.94 ± 0.16	3.22 ± 0.25
LPDVSLGRYAYVRGGGDPWTNGSG [MCOLN1]	2.51 ± 0.43	2.87 ± 0.22
NQIMPKAGLLIIVLAIIAREGDCA [MAGEA3]	3.02 ± 0.55	3.02 ± 0.76
APVTFRHHRYDDLVRTLYKVQNEC [CPN1]	2.62 ± 0.065	2.83 ± 0.12
ATKITLSAIYKWITDNFCYFRHAD [FOXJ1]	3 ± 0.21	2.77 ± 0.49
KEQILEFLVLEQFLTILPEELQSW [ZNF232]	3.21 ± 0.27	2.85 ± 0.62
LYQRAPRNIHRHVILSEIKEAVAA [TCF25]	2.75 ± 0.34	2.7 ± 0.25
ARKARKYEIPHFRLKKVENIKIWL [PHTF1]	2.09 ± 0.83	1.96 ± 0.46
VGDILWEHLEILQKEDVKPYQVNG [ETS1]	3.1 ± 0.27	3.05 ± 0.33
MSPSLQEGAQLGENKPSTCSFSIE [HESX1]	4.95 ± 0.3	5.07 ± 0.18
KLFFVDTGSKEKGLTKKRTKVQKK [NOP53]	3.26 ± 0.13	3.83 ± 0.54
QAPPVPGPPPGAPHTPQTPGQGGP [NR2F2]	5.22 ± 0.56	5.05 ± 0.38
RAFKIKDFANTIPGHGGIMDRFDC [CDS1]	2.41 ± 0.28	2.76 ± 0.27
SAFPFSDKLGELSDKIGSTIDDTI [CLINT1]	3.67 ± 0.2	3.81 ± 0.39
DVVNYFRTVGFEEQASAFQEQEID [SAMD13]	3.44 ± 0.28	3.88 ± 0.44
ELDPEVEGTKPSATEMIWAVLAAF [GOLPH3L]	2.21 ± 0.36	2.37 ± 0.28
EGNQKGEQATSLAILRVIRLVRVF [KCNA1]	2.2 ± 0.37	2.28 ± 0.37
TYRIENYTPDLPRADVDHAIEKAF [MMP1]	3.4 ± 0.18	3.39 ± 0.31
YTSSQKVSPIQIDGAGRTWQDSDT [TOR1AIP2]	3.62 ± 0.36	4.2 ± 0.51

Sequence	protein stability index (treatment: DMSO)	protein stability index (treatment: MLN4924 1 uM, 8 h)
SSNRIRHLRTHTGERPYKCSECGE [ZNF263]	4.28 ± 0.089	4.44 ± 0.24
DDKMVRFWRIDEDYPVQVAPLSNG [WSB1]	3.37 ± 0.34	3.45 ± 0.33
IHCENCKTTLGWKYEQAFESSQKY [YPEL3]	2.36 ± 0.38	2.62 ± 0.62
GGAAGAGWCIFVYNLSPEADESVL [ELAVL3]	3.22 ± 1.1	2.52 ± 0.91
PPNADLEQGFQEGVPNASVIMQVP [MFF]	4.83 ± 0.18	4.72 ± 0.33
IERQWGNLLGEGQHKCDECGKSFT [ZSCAN9]	3.79 ± 0.34	3.55 ± 0.22
ENAGGSPSPEPAGRRAALYVHWPY [RSAD1]	3 ± 0.4	3.23 ± 0.34
PPSYGGSSRYDDYSSSRDGYGGSR [RBMX]	4.612 ± 0.036	4.66 ± 0.33
PDIMNLLIKSGAHFDATNLHKQTA [FEM1C]	2.39 ± 0.14	2.29 ± 0.26
TEDTPKVNADIEKVNQNQAKRCTV [NSDHL]	5.42 ± 0.23	5.38 ± 0.21
TLMGKLKLKNTVTIQQEKLLAEKE [SASS6]	3.406 ± 0.012	3.39 ± 0.58
QYEGHVNEYAYLPLHVHEEEGILV [DCAF4]	3.19 ± 0.13	3.17 ± 0.27
VNAVLTQIDQIKRHSNVVILTTSN [TRIP13]	1.92 ± 0.46	1.95 ± 0.24
LLRSPPPPSARHRAHPPQRPASSG [KCNA3]	4.42 ± 0.18	4.62 ± 0.33
NHEQEVNTLRCQLGDRLNVEVDAA [KRT33B]	4.94 ± 0.11	5.16 ± 0.22
PAPCADGPAGGLADLSSGSSGEDD [PWWP2B]	5.51 ± 0.23	5.66 ± 0.15
LSLSNATVLTRSLFLGRILSLTSS [FANCE]	3.06 ± 0.64	2.88 ± 0.34
SADPARGLPRSRDCRVDLGSEVYR [PDLIM4]	3.74 ± 0.23	3.83 ± 0.09
MATLNRTAAGLMHTFNAHAATDIT [SEPHS2]	2.95 ± 0.053	3.01 ± 0.19
LAESEFESAAFSQGSRSGVSGGSR [PHTF1]	4.83 ± 0.3	4.93 ± 0.32
HSGDLGQLDGLGFLYVTGHIKEIL [ACSBG2]	2.09 ± 0.17	2.19 ± 0.32
GRPKELQPKKLHLCPLCGKNFSNN [ZNF263]	2.88 ± 0.46	3.58 ± 0.52
VRSIQPEEKERIGQFVFARDAKAA [AASDHPPT]	4.13 ± 0.31	4.39 ± 0.27

Sequence	protein stability index (treatment: DMSO)	protein stability index (treatment: MLN4924 1 uM, 8 h)
HMTRHLEESEKAMQERVQRLEAAR [LRRC45]	5.15 ± 0.06	5.06 ± 0.19
VLFTSDACGLSDVAHVESLQEKSQ [NR2F2]	3.93 ± 0.26	4.04 ± 0.28
SSLSFFLKKMGKRLDYLNLKGARL [FBXO39]	2.96 ± 0.66	2.63 ± 0.43
DLRGVCVSGKCEPIGCDGVLFSTH [ADAMTSL2]	2.4 ± 0.091	2.75 ± 0.59
IAQDTCTTTDHSSNPGPVPGSSSG [SPAG8]	5.23 ± 0.44	5.26 ± 0.23
GWILIDRCGKHFGTILNYLRDGAV [KCTD10]	3.08 ± 0.41	2.38 ± 0.52
RLYRLKLEELTKLQNNCTSSITRQ [TMEM120A]	2.62 ± 0.092	2.81 ± 0.3
TGGQTVVNPWIIIGGVATVVCQPN [SEPHS2]	2.84 ± 0.76	2.62 ± 0.7
ASHCLMNHPDLAKDLTEYLKVRSH [PDS5B]	3.05 ± 0.27	3.01 ± 0.18
SAPGACEEPTERGNLEVGEPQSEP [FBXO34]	5.67 ± 0.27	5.7 ± 0.17
GADREFIEARRRALKRFVNLVARH [SNX8]	2.45 ± 0.15	2.64 ± 0.25
TVCDPARSCAIVEDDGLQSAFTAA [ADAMTS4]	3.6 ± 0.85	4.16 ± 0.47
GRLLLTLPLLRQTAGKVLAHFYGV [ESRRA]	2.78 ± 0.54	3.05 ± 0.88
DFHQGLLSFYNARTKQVLHTFKTR [FSD1]	2.2 ± 0.16	2.28 ± 0.31
IRKKLKDSGDVSNVIEKVKCILKT [RHOBTB3]	3.1 ± 0.51	2.72 ± 0.94
FTDCSFFVRGQEFKAHKSVLAARS [SPOPL]	2.95 ± 0.69	2.61 ± 0.57
EAERKIIEENITSAAPSNDQDGEY [SRPK2]	5.66 ± 0.17	5.69 ± 0.26
RAPVVGVRVNVLLSRYLIEPCGPG [DLC1]	2.45 ± 0.7	2.79 ± 0.86
FSTILHLLLGSPHPAATALHAELC [LPCAT4]	3.14 ± 0.47	2.73 ± 0.53
SRQIPAPQGAVLVQREKDLPNYNW [KISS1]	3.78 ± 0.29	3.79 ± 0.14
GVVMKVRIPTCHDKPGTTQIVQLT [DENND6A]	2.02 ± 0.19	2.15 ± 0.4
EQAQAYAERLGVTFFEVSPLCNFN [RAB40A]	2.25 ± 0.26	2.48 ± 0.3
LQHLIGLSNLTHVLYPVPLESYED [PRAME]	2.3 ± 0.24	2.54 ± 0.12

Sequence	protein stability index (treatment: DMSO)	protein stability index (treatment: MLN4924 1 uM, 8 h)
FSDVTFILDDGTISAHKPLLISSC [RHOBTB2]	2.47 ± 0.15	2.25 ± 0.29
QSILLNTRLQDCYVDSPALTNIWM [C22orf31]	2.24 ± 0.24	2.1 ± 0.36
RRLFGPVDSEQLRRDCDALMAGCI [CDKN1A]	2.75 ± 0.26	2.74 ± 0.34
RVDPTRVNEFGMSGEDPTAAAPVA [CLPTM1]	4.98 ± 0.099	5.02 ± 0.2
ALQVPRGKEDSTLQLLREENRALQ [CBY2]	4.13 ± 0.25	4.23 ± 0.084
STGEVYCRVPNSGKDEIEAAVKAA [ALDH8A1]	4.93 ± 0.4	4.94 ± 0.32
PFDLEQQWQDLMSIMEMQAMEVNT [NFE2L1]	3.87 ± 0.17	4.03 ± 0.28
LYFSIHRYEQGRFWPHLKASNWST [HDAC6]	2.77 ± 0.66	2.73 ± 0.64
RSRKVSCPLTRSNGDLSRSLSPSP [FCHO1]	4.04 ± 0.45	4.08 ± 0.15
NDAYGPPSNFLEIDVSNPQTVGVG [SNX3]	4.68 ± 0.35	4.59 ± 0.08
EPPPKSGPSLVPGKTPTVRAALIC [CD207]	3 ± 0.15	3 ± 0.23
SLSNGQGSRVLHVVQTLYPFSSVT [NCK2]	2.01 ± 0.18	2.14 ± 0.21
DVTCFLLPHPGLQVATSPDFDGKL [ATL3]	2.58 ± 0.27	2.69 ± 0.35
VGERLQDTHSWKSELQREMEALAA [TEKT4]	3.9 ± 0.62	3.92 ± 0.56
ESIVPIPSSNEEIRLVDDAFGKIC [INTS4]	4.05 ± 0.35	4.29 ± 0.32
LESQVQKDGVADSTVISSMPCLLM [C18orf25]	3.39 ± 0.25	3.54 ± 0.27
RLVESLSTQIRALTEQQEQLRGQL [RASAL3]	2.38 ± 0.21	2.34 ± 0.26
LRCLDRDEPSKPTLALEYTYGRRA [DYNC2LI1]	3.45 ± 0.14	3.41 ± 0.32
SADMDESDEDDEEERRRRVFDVPI [FBXO3]	5.32 ± 0.18	5.35 ± 0.11
CCHRSQKGFPGCKLGLHDNHWVPA [FBXO34]	2.2 ± 0.39	2.16 ± 0.34
